Data from paper PMC5425604, “Fe65-PTB2 Dimerization Mimics Fe65-APP Interaction” (Frontiers in Molecular Neuroscience, 2017).
Several values for one entry are separate records, joined by “and”; a condition that tells them apart may be missing. Identical values can stand only once.

Tests used:
[1] = target: the molecule itself; experiment: native gel or EMSA; Blue Native gel of cytosolic and membrane fractions of HEK293 cells expressing Fe65-HA, with or without APP-myc; blots for HA and myc
[2] = target: the molecule itself; experiment: SEC-MALS; MALS in line with SEC, refractive index; SEC buffer with 5% (v/v) glycerol
[3] = target: the molecule itself; experiment: SAXS; 0.25-6 mg/mL, 20 mM Na2HPO4 pH 6.5, 150 mM NaCl, 2 mM DTT (reducing), 300 K; monomer to dimer

B1: Fe65-HA (natural protein, human, UniProt O00213 1-710, looked up)
chain: MSVPSSLSQSAINANSHGGPALSLPLPLHAAHNQLLNAKLQATAVGPKDLRSAMGEGGGPEPGPANAKWLKEGQNQLRRAATAHRDQNRNVTLTLAEEASQEPEMAPLGPKGLIHLYSELELSAHNAANRGLRGPGLIISTQEQGPDEGEEKAAGEAEEEEEDDDDEEEEEDLSSPPGLPEPLESVEAPPRPQALTDGPREHSKSASLLFGMRNSAASDEDSSWATLSQGSPSYGSPEDTDSFWNPNAFETDSDLPAGWMRVQDTSGTYYWHIPTGTTQWEPPGRASPSQGSSPQEESQLTWTGFAHGEGFEDGEFWKDEPSDEAPMELGLKEPEEGTLTFPAQSLSPEPLPQEEEKLPPRNTNPGIKCFAVRSLGWVEMTEEELAPGRSSVAVNNCIRQLSYHKNNLHDPMSGGWGEGKDLLLQLEDETLKLVEPQSQALLHAQPIISIRVWGVGRDSGRERDFAYVARDKLTQMLKCHVFRCEAPAKNIATSLHEICSKIMAERRNARCLVNGLSLDHSKLVDVPFQVEFPAPKNELVQKFQVYYLGNVPVAKPVGVDVINGALESVLSSSSREQWTPSHVSVAPATLTILHQQTEAVLGECRVRFLSFLAVGRDVHTFAFIMAAGPASFCCHMFWCEPNAASLSEAVQAACMLRYQKCLDARSQASTSCLPAPPAESVARRVGWTVRRGVQSLWGSLKPKRLGAHTP
notes: Fe65 (APBB1); called full-length Fe65 in the native gel analysis; human stated for Fe65 in general; Printed both as FE65-HA and HA-Fe65; also called HA-Fe65; HA-tagged Fe65; source: HEK293, transfected (pcDNA3.1), in lysate or subcellular fraction
- stoichiometry N [1]: 2

B2: Human Fe65-PTB2 (residues 534-667), crystallization construct (domain or fragment, UniProt O00213 534-667, looked up)
chain: APKNELVQKFQVYYLGNVPVAKPVGVDVINGALESVLSSSSREQWTPSHVSVAPATLTILHQQTEAVLGECRVRFLSFLAVGRDVHTFAFIMAAGPASFCCHMFWCEPNAASLSEAVQAACMLRYQKCLDARSQ
notes: Fe65 (APBB1), human, PTB2 domain, residues 534-667 of UniProtKB APBB1_HUMAN O00213; source: recombinantly expressed and purified as described previously (Radzimanowski et al., 2008a); final SEC with 5% glycerol
- stoichiometry N [2]: 2 and 4

B3: Wildtype Fe65-PTB2 (pETHis construct for NMR and SAXS) (domain or fragment, human, UniProt O00213 534-667, looked up)
chain: APKNELVQKFQVYYLGNVPVAKPVGVDVINGALESVLSSSSREQWTPSHVSVAPATLTILHQQTEAVLGECRVRFLSFLAVGRDVHTFAFIMAAGPASFCCHMFWCEPNAASLSEAVQAACMLRYQKCLDARSQ
notes: Fe65 (APBB1), human, PTB2 domain; limits 534-667 are stated for recombinant Fe65-PTB2 in general, not separately for the pETHis construct; also called wt Fe65-PTB2
- stoichiometry N [3]: 2
